Source: the supplement of paper PMC9170038

Assays:
MS2 coat protein [1] = experiment: apparent KD of MS2 coat protein; designed switch direction (-1 OFF switch, 1 ON switch): 1; higher = weaker reporter binding
Method in brief: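 On Illumina chips, designed RNA switches with common flanks were made by stalled E. coli RNA polymerase. Titrations with SNAP-549-labelled MS2 coat protein, doubling from 0.7 or 1.5 nM to 3 µM, were done with no input, with 200 uM small-molecule ligand, or with an oligonucleotide input. Apparent KD is the median per design over clusters, from curve fits of normalised cluster fluorescence.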

MS2 coat protein [2] = experiment: apparent KD of MS2 coat protein; higher = weaker reporter binding; settings: Eterna round: R107
Method in brief: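 Apparent KD was obtained for each design as the median of normalised binding-curve fits over its clusters. RNA switches transcribed on-chip from Illumina sequencing clusters were titrated with SNAP-549-labelled MS2 coat protein (twofold steps, 0.7 or 1.5 nM to 3 µM) in 100 mM Tris-HCl pH 7.5, 80 mM KCl, 4 mM MgCl2, without or with constant ligand.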

[3] = Eterna round: R95, input ligand: FMN 200 uM
[4] = Eterna round: R95, input ligand: microRNA oligo, concentration not stated
[5] = Eterna round: R95, input ligand: none
[6] = input ligand: microRNA oligo, concentration not stated

AGUCCAGCCUGAGCUGGACAAAAGCAUGUACAUGAGGAUCACCCAUGUCAUGUAUAAGCUUUUUGCUCGUCUUAAAA [Zipper 46 - 10] (puzzle: Sensor for hsa-mir-208a)
apparent KD of MS2 coat protein (MS2 coat protein [1]; [3]): 18.9 nM
apparent KD of MS2 coat protein (MS2 coat protein [1]; [4]): 9.63 nM
apparent KD of MS2 coat protein (MS2 coat protein [1]; [5]): 20.1 nM

UGUCCAGCCUGAGCUGGACAAAAGCAUGUACAUGAGGAUCACCCAUGUUCAUGUACAAGCUUUUUGCUCGUCUUAAC [salish99_208a_r3_033] (puzzle: Sensor for hsa-mir-208a)
apparent KD of MS2 coat protein (MS2 coat protein [1]; [3]): 354 nM
apparent KD of MS2 coat protein (MS2 coat protein [1]; [4]): 14.1 nM
apparent KD of MS2 coat protein (MS2 coat protein [1]; [5]): 465 nM

GUAGCAUACCGAGGAUAUUCAUAUUAACAUGAGGAUCACCCAUGUUUAGGUCGAUUACGACCUUGGGAGAAGGCGGAAUGCUAC [Xeonanis - 20 Mod33] (Eterna round: R96, puzzle: Same State NG 2)
apparent KD of MS2 coat protein (MS2 coat protein [1]; input ligand: FMN 200 uM): 12.3 nM
apparent KD of MS2 coat protein (MS2 coat protein [1]; [6]): 15.4 nM
apparent KD of MS2 coat protein (MS2 coat protein [1]; input ligand: none): 25.5 nM

GGAUGAUUAACAGGAUAUCAUUUGUAAAUUGGUUGAGAAGGGUUAAUGAUUUAAACGACCUGUUACAUGAGGAUCACCCAUGUU [SameState NG1 #1] (Eterna round: R96, puzzle: Same State NG 1)
apparent KD of MS2 coat protein (MS2 coat protein [1]; [6]): 45.6 nM

GGAGCCAAGGCAGGAUAUUCAUAUUAAAACAUGAGGAUCACCCAUGUAAAGGCCAGAAGGCCUUUGGAGAAGGGCCAUGGCUCG [Xeonanis - 13 mod14] (Eterna round: R96, puzzle: Same State NG 2)
apparent KD of MS2 coat protein (MS2 coat protein [1]; input ligand: FMN 200 uM): 17.7 nM
apparent KD of MS2 coat protein (MS2 coat protein [1]; [6]): 15 nM
apparent KD of MS2 coat protein (MS2 coat protein [1]; input ligand: none): 24.4 nM

ACAAGCUUUUCUGCAUUGAAAGGUGGGAUACAUGAGGAUCACCCAUGUUUUUAUGAAAAUAAUGCUCCUCGUCUUAU [JR_SHM208A_Sub092] (puzzle: Sensor for hsa-mir-208a)
apparent KD of MS2 coat protein (MS2 coat protein [1]; [3]): 214 nM
apparent KD of MS2 coat protein (MS2 coat protein [1]; [4]): 50.3 nM
apparent KD of MS2 coat protein (MS2 coat protein [1]; [5]): 243 nM

CCCGCGUUUCGCGCCUACAUGAGGAUCACCCAUGUUUGUAGGCAGGAUAUCGUCCGCUCUGCGGGCGAGAAGGGCUGUCGUGGU [salish99_SSNG3_R04_030] (Eterna round: R96, puzzle: Same State NG 3)
apparent KD of MS2 coat protein (MS2 coat protein [1]; input ligand: FMN 200 uM): 65.7 nM
apparent KD of MS2 coat protein (MS2 coat protein [1]; [6]): 53.5 nM
apparent KD of MS2 coat protein (MS2 coat protein [1]; input ligand: none): 70.1 nM

GAGGGCGAAAGCGACAUGAGGAUCACCCAUGUCCUCGGAGGACAGGAUAUCCGGCAAAAGCCGAAGGAGAAGGGUCGAAAAGAA [AK SSNG3-V2-37] (Eterna round: R96, puzzle: Same State NG 3)
apparent KD of MS2 coat protein (MS2 coat protein [1]; input ligand: FMN 200 uM): 47.2 nM
apparent KD of MS2 coat protein (MS2 coat protein [1]; [6]): 69.7 nM
apparent KD of MS2 coat protein (MS2 coat protein [1]; input ligand: none): 136 nM

GCAUCACAUGAGGAUCACCCAUGUCUUCGGAGCCGAGGAUAUGGUCACUGUAAACAGUGGCCAGAAGGCGGGAUGC [SS1 - Son of Teenbexe v1] (puzzle: Same State 1)
apparent KD of MS2 coat protein (MS2 coat protein [1]; [3]): 30.2 nM
apparent KD of MS2 coat protein (MS2 coat protein [1]; [4]): 41.5 nM
apparent KD of MS2 coat protein (MS2 coat protein [1]; [5]): 61.3 nM

AGAUCAUGACGAGGAUAUGGUACAUGAGGAUCACCCAUGUAUGUACCACGACGCGUACGUCGAAUCCAGAAGGCGUCAUGAUCA [Mat - Same State NG 2 - JL mod - D18] (Eterna round: R96, puzzle: Same State NG 2)
apparent KD of MS2 coat protein (MS2 coat protein [1]; input ligand: FMN 200 uM): 21.6 nM
apparent KD of MS2 coat protein (MS2 coat protein [1]; [6]): 92.8 nM
apparent KD of MS2 coat protein (MS2 coat protein [1]; input ligand: none): 150 nM

AUAGUUGCCGAAGGAUAUGAUGAGGAUCACCCAUCAGAAGGUUGGCUAUUGGGUGGACAUGAGGAUCACCCAUGUCCUUUGGUU (Eterna round: R96, puzzle: Same State NG 1)
apparent KD of MS2 coat protein (MS2 coat protein [1]; input ligand: FMN 200 uM): 58.2 nM
apparent KD of MS2 coat protein (MS2 coat protein [1]; [6]): 68.9 nM
apparent KD of MS2 coat protein (MS2 coat protein [1]; input ligand: none): 113 nM

GCGUUUAACGUAGGAUAUCGACCUACAUGAGGAUCACCCAUGUCUUUGUAUAGUUUUUUUUGUUACGAGAAGGACGUUUUGCAU [JR_SSNG2_Sub070] (Eterna round: R96, puzzle: Same State NG 2)
apparent KD of MS2 coat protein (MS2 coat protein [1]; input ligand: FMN 200 uM): 75.1 nM
apparent KD of MS2 coat protein (MS2 coat protein [1]; [6]): 95.2 nM
apparent KD of MS2 coat protein (MS2 coat protein [1]; input ligand: none): 122 nM

GGUCCAGCCUGAGCUGGACUACAGCAUGUACAUGAGGAUCACCCAUGUCAUGUACAAGAAUGUUGUUUGUCUUAAAA [Sensorship 8 - Jieux - Sensor for hsa-mir-208a] (puzzle: Sensor for hsa-mir-208a)
apparent KD of MS2 coat protein (MS2 coat protein [1]; [3]): 88.1 nM
apparent KD of MS2 coat protein (MS2 coat protein [1]; [4]): 64.3 nM
apparent KD of MS2 coat protein (MS2 coat protein [1]; [5]): 118 nM

UGGUACAUGGGAGGAUAUCAUGUAGACAUGAGGAUCACCCAUGUAGCCAUGGAGACAUGGGAGAAUGAGAAGGCCCAUGUACCU [JL SSNG1 3.54] (Eterna round: R96, puzzle: Same State NG 2)
apparent KD of MS2 coat protein (MS2 coat protein [1]; input ligand: FMN 200 uM): 298 nM
apparent KD of MS2 coat protein (MS2 coat protein [1]; [6]): 14.1 nM
apparent KD of MS2 coat protein (MS2 coat protein [1]; input ligand: none): 104 nM

AACAUGAGGAUCACCCAUGUCAGGUCGCCAACCUACAUGAGGAAGGAUAUAGCCUCGAAUAUUGGCUAGAAGGUCCUCAUGAAU [Tieson] (Eterna round: R96, puzzle: Same State NG 3)
apparent KD of MS2 coat protein (MS2 coat protein [1]; input ligand: FMN 200 uM): 320 nM
apparent KD of MS2 coat protein (MS2 coat protein [1]; [6]): 16.4 nM
apparent KD of MS2 coat protein (MS2 coat protein [1]; input ligand: none): 39.9 nM

UAGUGAUUGCAAGGAUAUGCUAGUUUUUAUUUGUGUUUGAUAUCUAACAUGAGGAUCACCCAUGUGCAGAAGGUGCUUGAUUUG [JR_SSNG2_Sub077] (Eterna round: R96, puzzle: Same State NG 2)
apparent KD of MS2 coat protein (MS2 coat protein [1]; [6]): 68.6 nM

AGUCCACCCUGAGGUGGACAAAAGCAUGUACAUGAGGAUCACCCAUGUCAUGUACAAGCUUUUUGCUCGUCUUAAUA [Mat - hsa-mir-208a - Mod of JL - D42] (puzzle: Sensor for hsa-mir-208a)
apparent KD of MS2 coat protein (MS2 coat protein [1]; [3]): 589 nM
apparent KD of MS2 coat protein (MS2 coat protein [1]; [4]): 17.9 nM
apparent KD of MS2 coat protein (MS2 coat protein [1]; [5]): 734 nM

GGUAGACGGACGGCCGCCACUCACAUGAGGAUCACCCAUGUAUAGUUGGUAAUCUGGGUUCAGGAGAGGACCGGGUCCUUGUCAG [theeternabot_exclusion_MS2_Trp_B_43]
apparent KD of MS2 coat protein (MS2 coat protein [2]; input ligand: arginine 13.2 mM): 34.3 nM
apparent KD of MS2 coat protein (MS2 coat protein [2]; input ligand: none): 18.4 nM
apparent KD of MS2 coat protein (MS2 coat protein [2]; input ligand: theophylline 20 uM): 23.2 nM
apparent KD of MS2 coat protein (MS2 coat protein [2]; input ligand: theophylline 2 mM): 24.3 nM
apparent KD of MS2 coat protein (MS2 coat protein [2]; input ligand: tryptophan 2.4 mM): 23.3 nM
